Experimental data published in patent US9951356B2, “Processes to prepare elongated 2-ketoacids and C6-C10 compounds therefrom via genetic modifications to microbial metabolic pathways” (Dow Global Technologies LLC, priority 2013, dated 2018).

How the values were obtained:
Type in all cases: biochemical
[1] = HTP screening assay of LeuB variants, 3-BM; settings: 1 mM 3-BM, 2 mM NAD+, pH 8.0, 25° C.; mean of duplicates
Experimental: (§1) The evaluation of the LeuB variants is performed in two steps using the high-throughput enzyme assay described below. Initially, all of the variants are screened for activity against a single high concentration of 3-IPM, 3-BM and 3-HM. Following the initial evaluation, detailed kinetic analysis is performed on a select number of variants to determine the maximal rate (kcat), Michaelis-Menten constant (KM), and the catalytic efficiency of the variant enzymes (kcat/KM).
(§2) A suitable spectrophotometric LeuB enzyme assay is adapted into a high-throughput format in 96-well plates for the kinetic evaluation of LeuB and its variants (shown in Table 1) against 3-isopropylmalate (3-IPM), 3-butylmalate (3-BM), and 3-hexylmalate (3-HM). See, for example, Hsu, Y.; Kohlhaw, G. B. “Leucine biosynthesis in Saccharomyces cerevisiae. Purification and characterization of beta-isopropylmalate dehydrogenase,” J. Biol. Chem., 1980, 255:7255-7260. Steady state kinetic parameters (kcat, KM and kcat/KM) for the oxidative decarboxylation of the three substrates by the variants are determined in these experiments.
(§3) The HTP screening assay involves incubating 750 micromoles (μM) of 3-IPM, 1 mM 3-BM or 1 mM 3-HM, with 2 mM nicotinamide adenine dinucleotide (NAD^+) in LeuB assay buffer (50 mM 4-(2-hydroxyethyl) piperazine-1-ethanesulfonic acid (HEPES), pH 8.0, containing 30 mM potassium chloride (KCl) and 5 mM magnesium chloride (MgCl2)) at 25° C. The reaction is started by the addition at 25° C. of working enzyme stock containing from 0.3 microgram (μg) to 1.1 μg of LeuB variant diluted in assay buffer containing 1 mM DTT and 1 milligram per milliliter (mg/mL) bovine serum albumin (BSA). The plate containing the 200 μL of reaction mixture is centrifuged at 2500×g for 15 seconds (sec) and the absorbance change of the reaction mixture is followed spectrophotometrically at 340 nm on a BioTek™ plate reader, pre-equilibrated at 25° C. Initial velocity of the enzyme reaction is calculated from the rate of NADH production at 340 nm and using the extinction coefficient of NADH (6.22 per millimolar per centimeter (mM^−1cm^−1)). The activity of all the variants is normalized with the amount of enzyme present in the reaction mixture and expressed as nanomoles per minute per microgram (nmol·min^−1·μg^−1) (Table 2). Protein concentrations for normalizing the activities are determined using the 660 nm total protein assay kit acquired from Pierce Biotechnology Inc.™, available from Thermo Fisher Scientific, Inc., and using BSA as the standard.

[2] = HTP screening assay of LeuB variants, 3-IPM; settings: 750 μM 3-IPM, 2 mM NAD+, pH 8.0, 25° C.; mean of duplicates
Experimental: as §1, §2, §3

[3] = HTP LeuB kinetic assay, oxidative decarboxylation of 3-HM; settings: for Km / kcat: substrate 3-HM, mean ± S.D.
Experimental: as §1, §2
(§4) The HTP kinetic assay involves incubating eight varied concentrations, of 3-IPM (from 0 to 1.2 mM) or 3-BM (from 0 to 2 mM) or 3-HM (from 0 to 2 mM), with 2 mM NAD^+ in LeuB assay buffer (50 mM HEPES, pH 8.0, containing 30 mM KCl and 5 mM MgCl2) at 25° C. The reaction is started by adding from 0.008 μg to 0.5 μg of LeuB variant which has been pre-diluted in assay buffer containing 1 mM DTT and 1 mg/mL BSA. The plate containing the 200 μl of reaction mixture is centrifuged at 2500×g for 15 sec and the absorbance change is followed spectrophotometrically at 340 nm on a BioTek™ plate reader maintained at 25° C. Initial velocity of the enzyme reaction is calculated from the rate of NADH production at 340 nm and using the extinction coefficient of NADH (6.22 mM^−1cm^−1). The kinetic parameters (kcat, KM and kcat/KM) of oxidative decarboxylation of 3-alkylmalate are determined by fitting the data to the Michaelis-Menten equation using nonlinear regression performed using the GraphPad Prism™ software. Table 3 lists the kinetic parameters of the wild type and engineered variants against the three substrates. The amount of enzyme in the reaction mixture is determined using the 660 nm total protein assay kit acquired from Pierce Biotechnology Inc.™, using BSA as the standard.

[4] = HTP screening assay of LeuB variants, 3-HM; settings: for Specific activity, 3-HM: 1 mM 3-HM, 2 mM NAD+, pH 8.0, 25° C., mean of duplicates; for activity against 3-HM compared with the wild type enzyme: screening at single high concentration
Experimental: as §1, §2, §3

[5] = HTP LeuB kinetic assay, oxidative decarboxylation of 3-IPM; settings: for decrease in efficiency of capturing 3-IPM compared with the wild type enzyme: less efficient than wild type LeuB; for Km / kcat: substrate 3-IPM, mean ± S.D.
Experimental: as §1, §2, §4

[6] = HTP LeuB kinetic assay, oxidative decarboxylation of 3-BM; settings: for Km / kcat: substrate 3-BM, mean ± S.D.
Experimental: as §1, §2, §4

| Molecule | Specific activity, 3-BM [1] [nmol/min/µg] | Specific activity, 3-IPM [2] [nmol/min/µg] | Km [3] [µM] | kcat [3] [s⁻¹] | Specific activity, 3-HM [4] [nmol/min/µg] | activity against 3-HM compared with the wild type enzyme [4] | decrease in efficiency of capturing 3-IPM compared with the wild type enzyme [5] | Km [5] [µM] | kcat [5] [s⁻¹] | efficiency of capturing 3-BM compared with the wild type enzyme ([6]; in words) | Km [6] [µM] | kcat [6] [s⁻¹] | catalytic efficiency for 3-IPM relative to that for 3-HM ([5]; higher for 3-IPM than for 3-HM) | increase in efficiency of capturing 3-HM compared with the wild type enzyme ([3]; more efficient than wild type LeuB) [fold] |
| --- | --- | --- | --- | --- | --- | --- | --- | --- | --- | --- | --- | --- | --- | --- |
| L96A: E. coli isopropylmalate dehydrogenase (LeuB) with Leu-96 replaced with alanine (protein, UniProt P30125 2-363, looked up, variant L96A) 3-isopropylmalate …: SKNYHIAVLPGDGIGPEVMTQALKVLDAVRNRFAMRITTSHYDVGGAAIDNHGQPLPPATVEGCEQADAVLFGSVGGPKWEHLPPDQQPERGALAPLRKHFKLFSNLRPAKLYQGLEAFCPLRADIAANGFDILCVRELTGGIYFGQPKGREGSGQYEKAFDTEVYHRFEIERIARIAFESARKRRHKVTSIDKANVLQSSILWREIVNEIATEYPDVELAHMYIDNATMQLIKDPSQFDVLLCSNLFGDILSDECAMITGSMGMLPSASLNEQGFGLYEPAGGSAPDIAGKNIANPIAQILSLALLLRYSLDADDAACAIERAINRALEEGIRTGDLARGAAAVSTDEMGDIIARYVAEGV | 9.48 | 15.4 | 240 ± 40 | 0.683 ± 0.0083 | 0.77 | higher activity than the wild type enzyme | approximately 4 fold | 16 ± 10 | 11.1 ± 2.57 | modestly poor | 130 ± 20 | 7 ± 0.367 | – | – |
| Wild type LeuB: native E. coli LeuB (isopropylmalate dehydrogenase), SEQ ID 2, histidine-tagged (protein, UniProt P30125 2-363, looked up) 3-isopropylmalate …: SKNYHIAVLPGDGIGPEVMTQALKVLDAVRNRFAMRITTSHYDVGGAAIDNHGQPLPPATVEGCEQADAVLFGSVGGPKWEHLPPDQQPERGALLPLRKHFKLFSNLRPAKLYQGLEAFCPLRADIAANGFDILCVRELTGGIYFGQPKGREGSGQYEKAFDTEVYHRFEIERIARIAFESARKRRHKVTSIDKANVLQSSILWREIVNEIATEYPDVELAHMYIDNATMQLIKDPSQFDVLLCSNLFGDILSDECAMITGSMGMLPSASLNEQGFGLYEPAGGSAPDIAGKNIANPIAQILSLALLLRYSLDADDAACAIERAINRALEEGIRTGDLARGAAAVSTDEMGDIIARYVAEGV | 4.3 | 18.3 | 160 ± 20 | 0.433 ± 0.033 | 0.68 | – | – | 9 ± 3 | 23.92 ± 2.02 | – | 38 ± 13 | 3.65 ± 0.333 | 1,000 fold | – |
| L96G: E. coli LeuB variant with Leu-96 replaced with glycine (protein, UniProt P30125 2-363, looked up, variant L96G) 3-isopropylmalate …: SKNYHIAVLPGDGIGPEVMTQALKVLDAVRNRFAMRITTSHYDVGGAAIDNHGQPLPPATVEGCEQADAVLFGSVGGPKWEHLPPDQQPERGALGPLRKHFKLFSNLRPAKLYQGLEAFCPLRADIAANGFDILCVRELTGGIYFGQPKGREGSGQYEKAFDTEVYHRFEIERIARIAFESARKRRHKVTSIDKANVLQSSILWREIVNEIATEYPDVELAHMYIDNATMQLIKDPSQFDVLLCSNLFGDILSDECAMITGSMGMLPSASLNEQGFGLYEPAGGSAPDIAGKNIANPIAQILSLALLLRYSLDADDAACAIERAINRALEEGIRTGDLARGAAAVSTDEMGDIIARYVAEGV | 1.5 | 2.90 | 30 ± 3 | 7.58 ± 0.167 | 9.5 | higher activity than the wild type enzyme | 100 fold | – | – | – | 1900 ± 200 | 3.12 ± 0.1 | – | 80 |
